Data on five substances can be found in article PMC3601010, “The complete N-terminal extension of heparin cofactor II is required for maximal effectiveness as a thrombin exosite 1 ligand” (BMC Biochemistry, 2013).

Assay [1] has as its target α-thrombin (UniProt P00734).
The target in assay [2] is Biotinylated HCII 1-75 (human). Put plainly: SPR; BIAcore X, 25°C; biotinylated HCII 1-75 on streptavidin-coated chip; thrombin 0-30 μM flowed at 20 μL/minute in 10 mM HEPES, 150 mM NaCl, 0.005% Tween-20, pH 7.7; one site binding model of plateau responses.
Assay [3] concerns the target α-thrombin (UniProt P00734). The source holds these as a separate data set.
Assay [4] deals with α-thrombin (UniProt P00734). This is another data set of the same source.
The target in assay [5] is α-thrombin (UniProt P00734). Put plainly: SPR; competition: BIAcore X, 25°C; biotinylated HCII 1-75 on streptavidin-coated chip; peptides combined with 250 nM thrombin immediately before flowing over the chip; Ki from IC50 and the KD of 340 nM.
Assay [6] has as its target α-thrombin (UniProt P00734). Put plainly: ELISA; competition: HCII 1-75 immobilised on microtiter wells; competitor peptides added with 5 nM α-thrombin; ratio of absorbance with and without competitor; IC50 by linear regression of log-transformed plots.

“Biotinylated HCII 1-75 (domain or fragment)” yielded a concentration required to double the thrombin clotting time (data not shown) in assay [1] of 11.7 µM.
Take “FPR-ck-thrombin (thrombin inactivated at its active site using D-Phe-L-Pro-L-Arg chloromethylketone) (from UniProt P00734 364-622) (enzyme)”: in assay [2], the Kd was 0.33 µM.
The substance “HCII 1-75 (recombinant peptide containing the first 75 residues of human heparin cofactor II and a nonapeptide N-terminal MGSH6 tag) (domain or fragment)” yielded a concentration required to double the thrombin clotting time of diluted citrated human plasma in assay [3] of 13 µM. In assay [4], the fold reduction of the apparent second-order rate constant of inhibition of 14 nM thrombin by 140 nM plasma-derived HCII with 55 μg/mL standard heparin, 250 μM peptide (Figure 5A) was found to be 2.8 fold and the fold reduction of the apparent second-order rate constant of inhibition of thrombin by plasma-derived HCII with 1.4 μM dermatan sulfate, 250 μM peptide (Figure 5B) was 7 fold. This substance came in with a concentration required to double the thrombin clotting time, unmodified polypeptide compared with the biotinylated one (data not shown) in assay [1] of 12.8 µM. Moreover, in assay [5], the inhibition constant (Ki) turned out to be 2.6 µM. Moreover, the IC50 in assay [6] was determined as 11 µM.
Substance “sulfo-Hir 54-65 (synthetic peptide containing the C-terminal 12 residues of hirudin variant 1, with Tyr63 sulfated) (from UniProt P01050 54-65)” yielded a concentration required to double the thrombin clotting time of diluted citrated human plasma in assay [3] of 0.15 µM. The inhibition constant Ki in assay [5] came to 0.054 µM. Also, the IC50 in assay [6] amounted to 0.14 µM.
For “α-thrombin (from UniProt P00734 364-622) (enzyme)”, the Kd in assay [2] amounted to 0.34 µM.
